Target: apoptosis-inducing factor, mitochondrial (AIFM1) (human) (UniProt O95831)
Experiment: cross-linking

In the case of “apoptosis-inducing factor, mitochondrial (AIFM1) (from UniProt O95831 103-613) (natural protein)”, the stoichiometry N is reported as 2.
